Assay results from patent publication US20190161539A1.

How the values were obtained:
[1] = target: β-amyloid peptide (1-42) conjugated to BSA; assay: competition ELISA on coated Aβ1-42-BSA against biotinylated Mu266, first set of three experiments
[2] = target: β-amyloid peptide (1-42) conjugated to BSA; assay: competition ELISA on coated Aβ1-42-BSA against biotinylated Mu266, second set of three experiments
[3] = target: Aβ 1-40 peptide (human); assay: KinExA 3000, equilibrium in solution with human soluble Abeta (1-40), 37° C.

Substance | IC50 [1] | IC50 [2] | Kd [3]
Mouse monoclonal antibody 266 (Mu266) | 4.7 µg/mL | 3.87 µg/mL | 
m266-Fab |  |  | 0.24 nM
